Experiment [1] deals with mouse colonic mucus. Nature of the experiment: Mucus staining on fixed tissues, mouse colon. The note with it: fixed tissue, 1 μg/mL. The protocol: FIGS. 11A-11C. Mucus staining using Cy5-MUB70 on fixed tissues. (FIG. 11A) Guinea pig colon, (FIG. 11B) rabbit ileum and (FIG. 11C) mouse colon were fixed in PFA 4%. Immunofluorescent staining was performed using Cy5-MUB70 (1 μg/mL) (blue). Actin is stained in red (Phall.-RRX), Muc2 is stained in green (α-Muc2). Observations were performed using a confocal microscope. Bar is 50 μm.
Ex vivo human colon samples were obtained from Dr. E. Labruyère (Institut Pasteur) and tissue processing was performed as described previously and stored in serum free RMPI media (surgical procedure is described herein). Human mucinous carcinoma formamide fixed samples were obtained from Dr. T. Lazure (Hôpitaux Universitaires Paris-Sud, Kremlin-Bicêtre) and Pr. I. Sobhani (Hôpital Henri Mondor, Créteil). Rabbit colon and ileum samples were collected on naïve New Zealand white rabbits weighting 2.5-3 kg and fixed in PFA 3%. Same procedure was applied on intestine samples collected on guinea pigs (Charles River) and C57/B6 mice (Janvier).
Following PFA 4% or Carnoy fixation, as indicated, samples were washed in PBS, incubated at 4° C. in PBS containing 12% sucrose for 90 min, then in PBS with 18% sucrose overnight, and frozen in OCT (Sakura) on dry ice. 7 μm sections were obtained using a cryostat CM-3050 (Leica). […]

For experiment [2], the target named is T1, human colonic mucus and goblet cells (Homo sapiens, UniProt Q02817).
T1 construct: Segments of human colon (ascending, descending and sigmoid colon) were obtained from fully informed patients undergoing surgery; from tissue; host or cells: healthy human colon segments (live explants, mucus collected from them, Carnoy- or formol-fixed sections)
Nature of the experiment: Fluorescent staining of healthy human colon, formol fixed, paraffin embedded samples. The protocol:
FIG. 22. Schematic description of the Cy5-MUB40-1, Cy5-MUB40-2, Cy5-MUB40-3, Cy5-MUB40-4 peptides (SEQ ID NOS 62 to 65). Fluorescent staining of human colonic mucus was performed by the addition of 1 μg/mL of the corresponding Cy5-conjugated peptides with Phalloidin-RRX (1:100) on formol fixed, paraffin embedded samples. Image acquisition was performed using a fluorescent confocal microscope (see Methods).
FIG. 23 Comparative staining analysis of human colonic goblet cells using Cy5-MUB70 and Cy5-MUB40-1. Fluorescent staining of human colonic mucus was performed by the addition of 1 μg/mL of the corresponding Cy5-conjugated peptides with Phalloidin-RRX (1:100) on formol fixed, paraffin embedded samples. Image acquisition was performed using a fluorescent confocal microscope (see Methods).
(§1) FIGS. 24A-24B. Comparative human colonic mucus staining using MUB70-Cy5 on healthy tissues and mucinous carcinomas (Coic et al, JBC, 2012 (41)). Fluorescent staining of human colonic mucus was performed by the addition of 1 μg/mL of the corresponding Cy5-conjugated peptides with Phalloidin-RRX (1:100) on formol fixed, paraffin embedded samples. Image acquisition was performed using a fluorescent confocal microscope (see Methods).
As colonic mucinous carcinomas are characterized by abnormal overproduction of Muc2 in the colon mucosa (40), the inventors have hypothesized that Cy5-MUB70 could be used as a novel fluorescent marker for the diagnosis of this pathology. […] As shown previously on a healthy colon (FIG. 3B), the luminal mucus secreted fraction is detected by Cy5-MUB70 (FIG. 24A, top panel). […] This observation might be the consequence of a higher level of mucus compaction, resulting in a lower accessibility for MUB70 to bind Muc2. […] Cy5-MUB70 has been validated as a potent innovative diagnostic tool for colonic mucinous carcinoma detection and might be optimized with alternative markers (e.g. biotin) for practical clinical applications.

Experiment [3] deals with T2, mucus of human colonic mucinous carcinomas (Muc2) (Homo sapiens, UniProt Q02817).
T2 construct: five different samples collected from patients diagnosed with colonic mucinous carcinomas; from tissue; host or cells: human colonic mucinous carcinoma samples, fixed, paraffin embedded
Nature of the experiment: Fluorescent staining of human colonic mucinous carcinoma samples. The protocol:
as §1
Ex vivo human colon samples were obtained from Dr. E. Labruyère (Institut Pasteur) and tissue processing was performed as described previously and stored in serum free RMPI media (surgical procedure is described herein). Human mucinous carcinoma formamide fixed samples were obtained from Dr. T. Lazure (Hôpitaux Universitaires Paris-Sud, Kremlin-Bicêtre) and Pr. I. Sobhani (Hôpital Henri Mondor, Créteil). Rabbit colon and ileum samples were collected on naïve New Zealand white rabbits weighting 2.5-3 kg and fixed in PFA 3%. […]
As colonic mucinous carcinomas are characterized by abnormal overproduction of Muc2 in the colon mucosa (40), the inventors have hypothesized that Cy5-MUB70 could be used as a novel fluorescent marker for the diagnosis of this pathology. […] As shown previously on a healthy colon (FIG. 3B), the luminal mucus secreted fraction is detected by Cy5-MUB70 (FIG. 24A, top panel). […]

The subject of experiment [4] is rabbit colonic mucus. In words: Mucus staining on fixed tissues, rabbit colon. The protocol:
FIGS. 8A-8D. (FIG. 8A) Cell toxicity of Cy5-MUB70 tested on HT-29-MTX and Hela epithelial cells. Cell survival was assessed using Sytoxgreen dye on cultures exposed to 1 μg/mL Cy5-MUB70 from 0 to 10 h, as indicated. NS indicates P>0.05 (Student's T-test). (FIG. 8B) Rabbit colonic and ileal mucus staining on fixed tissues (PFA 4%), using Cy5-MUB70 (1 μg/mL) (blue). Actin is stained in red (Phall.-RRX). Bar is 50 μm. (FIG. 8C) Human ex vivo colon sample was incubated for 2 h with 1 μg/mL Cy5-MUB70 in a serum-free media. Resulting fluorescent staining was assessed using a two-photons microscope (see Methods). Z-projection, performed using ImageJ software, allows 3D localization of Cy5-MUB70 fluorescence signal. Bar is 100 μm. Colon scheme: firmly (f) and loosely (I) attached colonic mucus layers are represented at the surface of the epithelium (e). (FIG. 8D) Kinetics of colonic mucus with Cy5-MUB70. […] Human tissue autofluorescence is detected in the same red channel as Cy5.
FIGS. 9A-9B. (FIG. 9A) Co-localization of Muc2 (green) and Cy5-MUB (blue) performed by immunofluorescent detection on human mucus extract collected on ex vivo tissues using an epifluorescent microscope. Bar is 50 μm. (FIG. 9B) Co-localization of Muc2 (green) and Cy5-MUB (blue) observed on fixed (PFA 4%) rabbit colon samples. Actin is stained in red (Phall.RRX). Observations are performed using a confocal microscope. […]

Experiment [5] relates to neutrophiles (white blood cells) in rabbit ileum sub-mucosa. In words: Staining of neutrophiles in rabbit ileum sub-mucosa. The note with it: PFA 4% fixed rabbit ileum; colocalized with α-elastase (PMN) signal. The protocol:
FIG. 13. Staining of individual neutrophiles (white blood cells) in rabbit ileum sub-mucosa. Cy5-MUB70 was incubated on PFA 4% fixed tissues. Signal was colocalized with an α-elastase (PMN) signal. (Primary antibody is α-elastase (PMN) 1:400 and secondary antibody is anti-mouse GFP 1:400, MUBCys5 1:400, Phalloidin-RRX 1:400). […] In particular, granules staining is achieved.

B1: Cy5-MUB70: Cy5-labelled MUB70 polypeptide, labelled via Cy5 maleimide on N-terminal cysteine (conjugate)
peptide: CVHVQYIDGETDQMLRQDDLDGYTDETIPYSTAEGIKKFEGDGYELFKDNFPAGEKFDNDDTNDQFYTVIF
On to B1, for which the colonic mucus staining entry in experiment [1] was “not stained”; in experiment [4] (rabbit colon, fixed tissue, 1 μg/mL) it was “confirmed”. Besides, the “mucosal staining in healthy colon tissues” value in experiment [2] (colonic mucosa of healthy colon tissues from the same patients) was “no mucosal staining was observed”. Further, the “luminal mucus secreted fraction staining in healthy colon” value in experiment [2] (healthy colon, fixed) is “detected”. In experiment [2] (human colonic goblet cells, fixed samples, 1 μg/mL), the goblet cells binding result is reported as “not recognized”. Also, the “staining of colonic mucinous carcinoma samples” value in experiment [3] (five samples from patients, 1 μg/mL) is “specific staining was observed within the mucus accumulation areas”. Further, the “colocalization with Muc2 in colonic mucinous carcinomas” value in experiment [3] (mucus accumulation within the colonic mucosa, associated with tumor cells) is “colocalizes with the presence of Muc2”. For the same molecule, the “colocalization with Muc2” value in experiment [4] (fixed rabbit colon samples) was “colocalization detection of Muc2 and Cy5-MUB70”. The “neutrophile staining in tissue” value in experiment [5] is recorded as “binding specifically a neutrophile component”.

The values are drawn from US10138280B2, “Polypeptides targeting glycosylated MUC2 proteins, methods of synthesis, their nucleic acids and uses thereof” (INSTITUT PASTEUR, priority 2011, dated 2018).
